In US20240092889A1 (Chugai, published 2024):
Substitutions are numbered along the chain they refer to.

Columns and labels:
[1] = biological target: T1, recombinant human C1r2s2 tetramer (human, UniProt P09871 16-688; P00736 18-705); assay: SPR (BIACORE T200), 37 C, ratio of KD at pH 5.8 to KD at pH 7.4
T1 construct: C1s and C1r co-expressed in HEK293/FreeStyle 293-F and purified from conditioned medium
T1 chain 1: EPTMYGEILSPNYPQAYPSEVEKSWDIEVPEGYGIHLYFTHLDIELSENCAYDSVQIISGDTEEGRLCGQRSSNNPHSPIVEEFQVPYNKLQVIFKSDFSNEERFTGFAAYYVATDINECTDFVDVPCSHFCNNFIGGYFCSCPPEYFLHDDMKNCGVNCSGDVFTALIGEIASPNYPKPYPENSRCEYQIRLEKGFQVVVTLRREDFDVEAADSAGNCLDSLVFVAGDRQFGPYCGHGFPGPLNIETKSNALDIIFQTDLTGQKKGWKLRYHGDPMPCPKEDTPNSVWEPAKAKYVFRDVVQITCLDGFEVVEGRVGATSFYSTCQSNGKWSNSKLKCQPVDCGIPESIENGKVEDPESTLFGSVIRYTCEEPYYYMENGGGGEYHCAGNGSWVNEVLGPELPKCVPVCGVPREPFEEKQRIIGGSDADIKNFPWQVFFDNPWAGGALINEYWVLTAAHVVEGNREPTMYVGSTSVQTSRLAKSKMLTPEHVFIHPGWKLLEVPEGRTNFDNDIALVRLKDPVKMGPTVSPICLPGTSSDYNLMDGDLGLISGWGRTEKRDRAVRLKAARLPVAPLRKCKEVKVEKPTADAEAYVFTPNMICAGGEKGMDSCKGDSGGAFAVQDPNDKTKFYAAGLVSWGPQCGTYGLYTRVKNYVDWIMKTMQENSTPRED
T1 chain 2: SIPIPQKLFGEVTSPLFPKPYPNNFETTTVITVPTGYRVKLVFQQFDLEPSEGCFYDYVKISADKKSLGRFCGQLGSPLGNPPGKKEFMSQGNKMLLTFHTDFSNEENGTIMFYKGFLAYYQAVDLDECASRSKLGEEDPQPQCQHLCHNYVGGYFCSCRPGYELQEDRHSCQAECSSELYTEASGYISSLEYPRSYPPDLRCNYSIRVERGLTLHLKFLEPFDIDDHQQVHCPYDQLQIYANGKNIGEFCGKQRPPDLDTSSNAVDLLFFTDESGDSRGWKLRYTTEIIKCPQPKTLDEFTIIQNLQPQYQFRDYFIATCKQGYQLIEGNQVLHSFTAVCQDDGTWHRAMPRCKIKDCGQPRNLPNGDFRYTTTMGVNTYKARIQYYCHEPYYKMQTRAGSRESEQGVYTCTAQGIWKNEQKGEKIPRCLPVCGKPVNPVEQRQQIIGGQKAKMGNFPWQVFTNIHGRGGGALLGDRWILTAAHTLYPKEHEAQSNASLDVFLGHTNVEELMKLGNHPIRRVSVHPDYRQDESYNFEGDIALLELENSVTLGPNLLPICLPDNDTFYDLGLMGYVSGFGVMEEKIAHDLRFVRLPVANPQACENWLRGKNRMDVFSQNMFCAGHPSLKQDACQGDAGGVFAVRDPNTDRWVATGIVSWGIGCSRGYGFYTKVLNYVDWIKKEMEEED
Method: (§1) KD (dissociation constant) value of each samples at pH 7.4 and pH 5.8 are determined at 37 degrees C. using BIACORE® T200 instrument (GE Healthcare). Purified Mouse Anti-Human Ig kappa Light Chain (GE Healthcare) can be immobilized onto all flow cells of a CMS sensor chip using an amine coupling kit (GE Healthcare). 20 mM ACES, 150 mM NaCl, 1.2 mM CaCl2, 1 mg/mL BSA (IgG-free), 1 mg/mL CMD, 0.05% Tween® 20, 0.005% NaN3, pH 7.4 or pH 5.8 buffer were used as running buffer. Each antibody can be captured onto the sensor surface by Anti-Human Ig kappa Light chain. Antibody capture levels are aimed at 50 resonance unit (RU). […] Sensor surface is regenerated each cycle with, e.g., Glycine pH 2.0 (GE Healthcare). KD values were obtained using BIACORE® T200 Evaluation software, version 2.0 (GE Healthcare).

[2] = biological target: T1, recombinant human C1r2s2 tetramer; assay: SPR (BIACORE T200), 37 C, Ab captured via anti-human Ig kappa, human C1r2s2 as analyte, pH 7.4; pH 7.4, 37 C
Method: as §1

[3] = biological target: T1, recombinant human C1r2s2 tetramer; assay: SPR (BIACORE T200), 37 C, Ab captured via anti-human Ig kappa, human C1r2s2 as analyte, pH 5.8; pH 5.8 (acidic buffer), 37 C; antibody engineered for pH-dependent binding
Method: as §1

[4] = biological target: T1, recombinant human C1r2s2 tetramer; assay: SPR (BIACORE T200), 37 C, Ab captured via anti-human Ig kappa, human C1r2s2 as analyte, pH 7.4; pH 7.4, 37 C; kinetic KD, C1r2s2 up to 100-400 nM
Method: as §1

[5] = biological target: T1, recombinant human C1r2s2 tetramer; assay: SPR (BIACORE T200), IPN009VH2Vk3-SG1148 immobilised on the chip, human C1r2s2 injected for capture, pH 7.4, 37 C
From the text: Recombinant human C1r2s2 tetramer was first captured onto the sensor surface by the anti-C1r2s2 antibody. The capture levels were aimed at 200 resonance unit (RU). […] The sensor surface was regenerated each cycle with 3 M MgCl2. Sensorgrams were obtained using BIACORE® T200 Evaluation software, version 2.0 (GE Healthcare). […] For comparison of these sensorgrams, binging response of C1r2s2 was normalized as 100 RU. […] For comparison of these sensorgrams, baseline (before injecting antibodies) was adjusted to 0 RU.

B1: COS0637pHv3-TT91R (antibody, V domains shown)
VH: QVQLVESGGGVVQPGRSLRLSCAASGFTFSAYAMNWIRQPPGKGLEWIGLIYGSGHEFYASWAEERVTISVDTSKNQFSLKLSSVTAADTAVYYCARGRSKNYVSGFHLWGQGTLVTVSS
VL: DIQMTQSPSSLSASVGDRVTITCQASQILHDKKNLAWYQQKPGQPPKLLIYQASQLESGVPSRFSGSGSGTDFTLTISSLQPEDFATYYCHGEFSYESADLNQFGQGTKVEIKR
Which “KD (pH 5.8)/KD (pH 7.4)” value [1] does the source give for B1 here?
The value was 278.

And the Kd [2]?
Its Kd is 7.66 nM.

What about the Kd [3] of the same binder?
The Kd was 2130 nM.

B2: COS0637pHv5-TT91R (antibody, V domains shown)
VH: B1 VH with T28S
VL: B1 VL with Q27G, Q52G, S98E, Q103T
Which Kd [4] does the source give for B2 here?
Its Kd is 6.43 nM.

B3: IPN009VH2VK3-SG1148 (antibody, human IgG1, kappa, V domains shown)
VH: EVMLVESGGGLVKPGGSLRLSCAASGFTFSNYAMSWVRQAPGKGLEWVATISSGGSHTYYLDSVKGRFTISRDNSKDTLYLQMNSLRAEDTALYYCARLFTGYAMDYWGQGTLVTVSS
VL: QIVLTQSPATLSLSPGERATLSCTASSSVSSSYLHWYQQKPGKAPKLWIYSTSNLASGVPSRFSGSGSGTDYTLTISSLQPEDFATYYCHQYYRLPPITFGQGTKLEIKR
notes: also called anti-human C1r2s2 antibody
Does B3 bind [5]?
Result: binds
